Test results: US5998142, “Systematic evolution of ligands by exponential enrichment: chemi-SELEX” (NeXstar Pharmaceuticals, Inc.)
Positions count from the first letter of the chain named.

B1: 12.1 (ssRNA)
RNA: GGGAGCUCAGAAUAAACGCUCAAAGCUGUUGGCAGCGCUGGUGAAGGGAUAGGCUUCGACAUGAGGCCCGGAUCCGGC
modifications: 5'-GMPS
B2: 12.3 (ssRNA)
RNA: GGGAGCUCAGAAUAAACGCUCAACAUCACAACUUGUUGUCCUGGUCGAUGUCCUUCGACAUGAGGCCCGGAUCCGGC
modifications: 5'-GMPS
B3: 12.22 (ssRNA)
RNA: GGGAGCUCAGAAUAAACGCUCAAUGCCACUUUUGUUCGGAUCUUAGGAAGGCAUUCGACAUGAGGCCCGGAUCCGGC
modifications: 5'-GMPS
B4: 12.24 (ssRNA)
RNA: GGGAGCUCAGAAUAAACGCUCAACGUCAGCGGAUCUCCAUUGCGUUAUACGGGUUCGACAUGAGGCCCGGAUCCGGC
modifications: 5'-GMPS
B5: 12.9 (ssRNA)
RNA: GGGAGCUCAGAAUAAACGCUCAAGUGGAGCUUCGUGACUUGGUCGGAGCCGUGUUCGACAUGAGGCCCGGAUCCGGC
modifications: 5'-GMPS
B6: 12.47 (ssRNA)
RNA: GGGAGCUCAGAAUAAACGCUCAAUGUGUGAGUGGAUCCGUUCCCCGCCUGGUGUUCGACAUGAGGCCCGGAUCCGGC
modifications: 5'-GMPS
B7: 12.14 (ssRNA)
RNA: GGGAGCUCAGAAUAAACGCUCAAACGUCAUUCCGAGUCGGGUUCGUUCCCCGCUUCGACAUGAGGCCCGGAUCCGGC
modifications: 5'-GMPS
B8: 12.4 (ssRNA)
RNA: GGGAGCUCAGAAUAAACGCUCAACGAAUCAAUGCGCGGAUCUCAGGAUAUUCGUUCGACAUGAGGCCCGGAUCCGGC
modifications: 5'-GMPS
B9: 12.46 (ssRNA)
RNA: GGGAGCUCAGAAUAAACGCUCAAUGGACACAACUCCAUUCAUCCCGGGACCGCUGUUCGACAUGAGGCCCGGAUCCGGC
modifications: 5'-GMPS
B10: 10.28 (ssRNA)
RNA: GGGAGCUCAGAAUAAACGCUCAACGUUUAGGACUCCCCCGUUCGUCGAGCGAAUUCGACAUGAGGCCCGGAUCCGGC
modifications: 5'-GMPS
B11: 12.6 (ssRNA)
RNA: GGGAGCUCAGAAUAAACGCUCAAGCGGUAACAUGCUGGAUCUCAGGAAACCGCUUCGACAUGAGGCCCGGAUCCGGC
modifications: 5'-GMPS
B12: 12.45 (ssRNA)
RNA: B11 RNA with C53U
modifications: 5'-GMPS

The binders below were run against des-Arg9-bradykinin (UniProt P01042 P01042:381-388, des-Arg9) (assay: competition; inhibition of reaction of 12.1 with BrBK; +/-0.5). Settings: tags: peptide analog.
Sequence of des-Arg9-bradykinin (P01042 whole entry, looked up, change not shown, one chain of several): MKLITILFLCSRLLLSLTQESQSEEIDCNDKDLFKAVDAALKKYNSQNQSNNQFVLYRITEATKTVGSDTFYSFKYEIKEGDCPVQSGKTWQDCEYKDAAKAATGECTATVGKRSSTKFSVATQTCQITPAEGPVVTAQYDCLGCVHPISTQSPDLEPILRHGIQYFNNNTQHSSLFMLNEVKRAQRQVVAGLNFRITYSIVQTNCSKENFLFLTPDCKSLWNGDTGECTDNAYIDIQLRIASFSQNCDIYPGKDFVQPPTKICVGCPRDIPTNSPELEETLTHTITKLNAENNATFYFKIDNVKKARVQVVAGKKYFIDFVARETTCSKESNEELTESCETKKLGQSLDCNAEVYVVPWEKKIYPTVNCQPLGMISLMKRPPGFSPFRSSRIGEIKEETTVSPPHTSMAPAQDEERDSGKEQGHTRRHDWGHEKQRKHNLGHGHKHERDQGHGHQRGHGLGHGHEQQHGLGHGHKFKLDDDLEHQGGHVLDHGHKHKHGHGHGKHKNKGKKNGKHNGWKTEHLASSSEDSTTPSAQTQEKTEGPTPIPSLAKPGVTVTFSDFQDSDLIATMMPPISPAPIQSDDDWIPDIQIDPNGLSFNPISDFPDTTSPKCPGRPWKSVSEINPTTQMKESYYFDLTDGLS
In the case of B1, the Ki is reported as 2600 µM.

The binders below were run against bradykinin (BK) (UniProt P01042 P01042:381-389) (assay: competition; inhibition of reaction of 12.1 with BrBK; +/-60). Settings: tags: native peptide.
Sequence of bradykinin (BK) (P01042 whole entry, looked up, one chain of several): as the sequence (P01042 whole entry, looked up, change not shown, one chain of several) above
B1 was tested, and the Ki was 140 µM.

What follows are binders tested against bradykinin, N-bromoacetylated (BrBK) (UniProt P01042 P01042:381-389) (assay: kobs covalent reaction, APM gel, 0 C, 5 mM MgCl2). Settings: protein: synthetic; tags: synthetic peptide, N-terminal bromoacetyl.
Sequence of bradykinin, N-bromoacetylated (BrBK) (P01042 whole entry, looked up, one chain of several): as the sequence (P01042 whole entry, looked up, change not shown, one chain of several) above
Procedure: Reverse transcription and polymerase chain reaction were carried out as reported by Schneider et al., (FASEB, 7, 201 (1993)). […] Reactions to determine $kobs$ values were carried out at 0° C. in reaction buffer (50 mM HEPES, pH 7.0, 5 mM MgCl_2, 150 mM NaCl) at 2 µM GMPS-RNA and 130 µM BrBK, with monitoring at 0, 1, 3, 10, 30, and 90 minutes. GMPS-RNA was denatured at 70° C. for 3 minutes and allowed to slow cool at room temperature prior to dilution to final reaction buffer conditions, transfer to ice, and addition of BrBK. Reactions were quenched on ice with 235 mM sodium thiosulfate and run on a denaturing 7 M urea 8% polyacrylamide APM gel. $kobs$ values were determined as the negative slope of the linear range of data points from plots relating the concentration of unreacted GMPS- RNA vs. time. Round 10 and round 12 pools were used for cloning and sequencing.
Work on B2 yielded an activity of 0.00075 s⁻¹.
B3 was tested, and the activity was 0.0012 s⁻¹.
Work on B4 yielded an activity of 0.00144 s⁻¹.
B5 was tested, and the activity was 0.00128 s⁻¹.
B6 was tested, and the activity was 0.00149 s⁻¹.
B7 showed an activity of 0.0017 s⁻¹.
With B8 the activity was 0.0017 s⁻¹.
B9 was tested, and the activity was 0.00067 s⁻¹.
B10 showed an activity of 0.0018 s⁻¹.
In the case of B11, the activity is reported as 0.0022 s⁻¹.
B12 was tested, and the activity was 0.0051 s⁻¹.

What follows are binders tested against Rev (HIV-1, UniProt P04618 P04618:1-116) (assay: EMSA; covalent complex without UV, resistant to 7M urea PAGE, in presence of human nuclear extract, on ice). Settings: not given.
Sequence of Rev (P04618 whole entry, one chain of several): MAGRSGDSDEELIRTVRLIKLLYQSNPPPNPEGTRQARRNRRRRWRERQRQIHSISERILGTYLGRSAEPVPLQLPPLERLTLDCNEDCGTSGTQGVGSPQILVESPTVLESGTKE
Procedure: Trunc24 (SEQ ID NO:226) photo-independent crosslinking with HIV-1 Rev in the presence of human nuclear extracts was determined as follows: Trunc24 RNA, nuclear extracts, and Rev protein were combined and incubated on ice for 10 min. Samples were mixed 1:1 with 8M urea loading buffer and placed on a 7M urea, 8% polyacrylamide gel for analysis.
GGGGAUUAACAGGCACACCUGUUAACCCU (ssRNA, 5-iodouracil at all U) [Trunc24]: binds.
